A short description of one series: in vivo. Particulars: rat, plasma.
Series [1] can be described thus: in vitro. The note with it: human, plasma.
The nature of series [2]: Plasma stability analysis, mouse plasma. The note with it: plasma, BTCs.
Series [3] in a line: in vitro. Particulars: rat, plasma.

Bounds are passed on as bounds.

What is called half-life is the time needed for the level to fall by half in the phase considered. Higher therefore signals slow decline. In general, fraction unbound refers to free concentration divided by total concentration. In the case of `CC[C@H](C)[C@@H]([C@@H](CC(=O)N1CCC[C@H]1[C@H](OC)[C@@H](C)C(=O)N[C@H](C)[C@@H](O)c1ccccc1)OC)N(C)C(=O)[C@@H](NC(=O)[C@H](C(C)C)N(C)C(=O)OCc1ccc(NC(=O)[C@H](CCCNC(N)=O)NC(=O)[C@H](Cc2cccc3ccccc23)NC(=O)[C@H](CCC(=O)O)NC(=O)Cn2cc(CCC(=O)NCCC(=O)N(C)CC(=O)N(C)CC(=O)N(C)CC(=O)N(C)CC(=O)N(C)CC(=O)N(C)CC(=O)N(C)CC(=O)N(C)CC(=O)N(C)CC(=O)N(C)CC(=O)N[C@@H](C)C(=O)N[C@H]3CN(C)Cc4cc5cc(c4)CN(C)C[C@@H](C(N)=O)NC(=O)[C@H](C(C)(C)C)NC(=O)[C@H](CC(=O)O)NC(=O)[C@H](Cc4ccc(O)cc4)NC(=O)[C@H](Cc4ccccc4)NC(=O)[C@H](CC(=O)O)NC(=O)[C@H](CCC(=O)O)NC(=O)[C@H](CSC5)NC(=O)[C@@H](C)NC(=O)[C@H](Cc4cccc5ccccc45)NC(=O)[C@H](CCC(=O)O)NC(=O)[C@H](CC(N)=O)NC(=O)[C@@H](C)NC3=O)nn2)cc1)C(C)C` [BCY10984, MMAE-PAB-(Cit-1Nal-Glu)-BCY3900], the half-life in “in vivo” is 1.83 h. The fraction unbound came to 0.031 in the series “in vitro [1]”; 0.04 in the series “in vitro [3]” (PPB (% Unbound), rat (Table 9)); 0.035 in “in vitro [3]” (Plasma protein binding (% Unbound) Rat). For the same compound, the half-life at 2 μM in series [2] (pH 7.4, Mouse plasma t1/2 (EDTA), EDTA anticoagulant) was above 57.8 h; in series [2] (pH 7.4, Mouse plasma t1/2 (Herparin), heparin anticoagulant) it was 47.5 h.

Values taken from patent publication US12540161B2, “Linkers” (BicycleTx Limited, priority 2020, dated 2026).
